Experimental data as given in PMC10397319, “The phosphatidylinositol (4,5)-bisphosphate-Rab35 axis regulates migrasome formation” (Cell Research, 2023).
Ends that are not written are not given here.

Biological target: T1, His-GFP-Rab35-Q67L (rat, UniProt Q5U316 1-201, Q67L)
T1 construct: Rab35, cloned from rat cDNA, constitutively active mutant Q67L; the methods describe only the WT purification; also called constitutively active Rab35-Q67L; active Rab35; source: cloned into pET21b, purified; not shown: GFP, N-terminal, kept
Experiment: dual-color fluorescence cross-correlation spectroscopy (dcFCCS); both free in solution; 100 nM GFP-Rab35 mixed with 500 nM Cy5-ITGα5-cyto; 20 mM HEPES pH 7.5, 100 mM NaCl, 2 mM MgCl2, 0.1% BSA; 25 °C; 5 min recording, three repeats
Details: both partners purified

T1 sequence (Q5U316 whole entry Q67L): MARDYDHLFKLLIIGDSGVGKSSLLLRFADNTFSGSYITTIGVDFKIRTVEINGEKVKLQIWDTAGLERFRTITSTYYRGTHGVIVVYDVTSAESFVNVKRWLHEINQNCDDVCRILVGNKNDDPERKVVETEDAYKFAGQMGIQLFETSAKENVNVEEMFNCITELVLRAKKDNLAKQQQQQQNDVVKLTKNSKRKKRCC

B1: Cy5-ITGα5-cyto-WT (peptide)
peptide: YKLGFFKRSLPYGTAMEKAQLKPPATSDA
modifications: also: Sulfo-Cy5 label, site not given here
notes: also called cytosolic domain of integrin α5; WT peptide; source: synthetic peptide (Synpeptide Co., Ltd.), labelled with Sulfo-Cy5 NHS ester
- binding result: binds
